Patent CN110903391A (DONGDA BIOTECHNOLOGY SUZHOU CO LTD, dated 2020)
Residue numbers refer to the chain shown, from its start.

B1: 亲和力成熟的人源化6C8D8抗体(重链Seq ID 43, 轻链Seq ID 44) (antibody, V domains shown)
VH: QITLKESGPTLVKPTQTLTLTCTVSGFSLTSYDISWIRQPPGKALEWLGVIWTGGGTTYNSAFMSRLTITKDNSKNQVVLTMTNMDPVDTATYYCVRGRDWDFDYWGQGTLVTVSS
VL: EIVLTQSPDFQSVTPKEKVTITCRASQSIGTSIHWYQQKPDQSPKLLIKYVSESISGVPSRFSGSGSGTDFTLTINSLEAEDAATYYCQQSNSWPFTFGQGTKLEIK
B2: 亲和力成熟的人源化10E9C7G2抗体(重链Seq ID 48, 轻链Seq ID 50) (antibody, V domains shown)
VH: QVQLQQSGPGLVKPSQTLSLTCAISGDSVSSGYWNWIRQSPSRGLEYMGYISYTGSTYYSLSLKSRITINRDTSKNQYSLQLNSVTPEDTAVYYCARGDYGSDWPPWFAYWGQGTTVTVSS
VL: DIQMTQSPSSLSASVGDRVTITCSASISISSNSLQWYQQKPGKAPKLLIYRTTNLPSGVPSRFSGSGSGTDYTLTISSLQPEDFATYYCQQSGGLPLTFGQGTKLEIK
B3: 亲和力成熟的人源化10E9C7G2抗体(重链Seq ID 49, 轻链Seq ID 50) (antibody, V domains shown)
VH: B2 VH with S60D
VL: B2 VL
B4: 10E9C7G2人源化完整抗体 (antibody, human IgG1, kappa, V domains shown)
VH: B2 VH with V29I, S30T, S60N
VL: DIQMTQSPSSLSASVGDRVTITCSASSSISSNSLQWYQQKPGKAPKLLIYRTTNLPSGVPSRFSGSGSGTDYTLTISSLQPEDFATYYCQQSSGLPLTFGQGTKLEIKR
notes: Humanized IgG1; expressed in 293 cells; also called hu10E9C7G2; 人源化的10E9C7G2抗体
B5: 6F9B1A6人源化完整抗体 (antibody, human IgG1, kappa, V domains shown)
VH: QVQLVQSGAEVKKPGSSVKVSCKASGYTFIGYTVHWVRQAPGQGLEWIGWFYPGSGSIKYNEKFKDRATLTADKSTSTVYMELSSLRSEDTAVYYCARHGTGKFNYFDVWGQGTTVTVSS
VL: DIQLTQSPSFLSASVGDRVTITCRASSTVSYMHWYQQKPGKAPKPWIYATFNLASGVPSRFSGSGSGTEYTLTISSLQPEDFATYYCQPWSSYPLTFGQGTKLEIKR
notes: Humanized IgG1; expressed in 293 cells; also called hu6F9B1A6; 人源化的6F9B1A6抗体
B6: 6C8D8人源化完整抗体 (antibody, human IgG1, kappa, V domains shown)
VH: B1 VH with T58N
VL: EIVLTQSPDFQSVTPKEKVTITCRASQSIGTSIHWYQQKPDQSPKLLIKYASESISGVPSRFSGSGSGTDFTLTINSLEAEDAATYYCQQSNSWPFTFGQGTKLEIKR
notes: Humanized IgG1; expressed in 293 cells; also called hu6C8D8; 人源化的6C8D8抗体

Assays:
[1] = target: 带组氨酸标签的PD-L1抗原 (UniProt Q9NZQ7); test: Biacore 3000 SPR, antibody captured by anti-human IgG on CM5, PD-L1-His as analyte
[2] = target: T1, PD-L1 on 293T-PD-L1细胞 (human, UniProt Q9NZQ7 19-290); test: FACS on 293T-PD-L1 cells
T1 construct: whole, on cells; Construct not described
T1 sequence (Q9NZQ7 19-290): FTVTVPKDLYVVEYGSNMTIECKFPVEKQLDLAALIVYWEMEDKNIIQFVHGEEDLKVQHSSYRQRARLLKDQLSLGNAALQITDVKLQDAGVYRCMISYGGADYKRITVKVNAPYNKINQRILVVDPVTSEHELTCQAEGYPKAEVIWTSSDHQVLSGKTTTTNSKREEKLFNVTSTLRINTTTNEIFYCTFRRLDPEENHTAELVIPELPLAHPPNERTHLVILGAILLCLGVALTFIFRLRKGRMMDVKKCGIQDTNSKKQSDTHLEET

[3] = target: T2, PD-L1-ECD-hFc (human, UniProt Q9NZQ7 19-238); test: ELISA, PD-L1-ECD-hFc coated
T2 construct: extracellular domain; Coated on the ELISA plate; also called PD-L1-hFc; PD-L1-hFc蛋白; not shown: hFc: human Fc
T2 sequence (Q9NZQ7 19-238): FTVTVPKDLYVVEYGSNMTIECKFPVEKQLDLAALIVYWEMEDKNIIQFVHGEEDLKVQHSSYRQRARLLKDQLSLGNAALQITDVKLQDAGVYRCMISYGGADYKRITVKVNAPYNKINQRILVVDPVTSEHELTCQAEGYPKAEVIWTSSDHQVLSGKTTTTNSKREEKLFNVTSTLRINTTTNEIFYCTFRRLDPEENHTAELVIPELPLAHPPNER

[4] = target: T1, PD-L1 on 293T-PD-L1细胞; test: competition FACS on 293T-PD-L1 cells, competitor PD-1-biotin
[5] = target: T2, PD-L1-ECD-hFc; test: competition ELISA, PD-L1-ECD-hFc coated, competitor PD-1-biotin

Binder	fold increase of affinity against humanized 6C8D8 [1]	fold increase of affinity against humanized 10E9C7G2 [1]	EC50 [2] [µg/mL]	EC50 [3] [µg/mL]	IC50 [4] [µg/mL]	IC50 [5] [µg/mL]
B1	9.25 倍 (fold)					
B2		7.2 倍 (fold)				
B3		4.8 倍 (fold)				
B4			0.0392	0.000684	0.0327	0.147
B5			0.0412	0.00448	0.0365	0.108
B6			0.0413	0.00224	0.0437	0.139
